Measured values taken from article PMC3341351, “Down-Regulation of GABAA Receptor via Promiscuity with the Vasoactive Peptide Urotensin II Receptor. Potential Involvement in Astrocyte Plasticity” (PLoS ONE, 2012).

Legend:
[1] = test system: GABAAR in cerebellar astrocytes (UT co-expressed); test: Whole-cell patch-clamp of isoguvacine (Iso)-evoked depolarization/chloride current in cerebellar astrocytes co-cultured with granule neurons; format: cell-based, rat; settings: Iso 10^−4 M; n = 78
Procedure: (§1) Primary Cell Culture of astrocytes and astrocyte-neurone co-culture
(§2) Primary cultures of astrocytes were prepared as previously described. Briefly, cerebellum from 7-day-old (P7) Wistar rats were collected in DMEM/Ham-F12 (2∶1, v/v) culture medium supplemented with 2 mM glutamine, 1% insulin, 5 mM HEPES, 0.4% D(+)-glucose and 1% of the antibiotic-antimycotic solution. The tissues were disaggregated mechanically with a syringue equipped with a 1-mm gauge needle, and filtered through a 100-µm pore size mesh filter (Falcon, Becton Dickinson, Grenoble, France). Dissociated cells were resuspended in culture medium supplemented with 10% heat-inactivated FBS and seeded in 150-cm^2 culture flasks (Falcon) at a density of 20×10^6 cells/flask. Cells were incubated at 37°C in a humidified atmosphere (5% CO2) and the medium was changed twice a week. When cultures were confluent, the flasks were gently shaken on an orbital shaker at […] for 2 h. Dislodged cells were discarded and a second step of purification was performed at […] for 14–16 h. Remaining adhesive cells were collected by trypsination, centrifuged (800 g, 10 min) and plated in 150-cm^2 flasks. Suspended astrocytes were harvested and seeded in 24-well poly-L-lysine-coated plates. The purity of the cultures was previously assessed by counting the percentage of astrocytes immunostained with GFAP antibodies. The enriched cultures contained >99% astrocytes.
(§3) For astrocyte-neuron co-culture, granule cell cultures were prepared from cerebella of P7 Wistar rats as described previously. Isolated cells were plated on 14-mm culture dishes coated with poly-L-lysine (5 mM) at a density of 1.5×10^6 cells/dish and incubated at 37°C in a humidified atmosphere (5% CO2) for 1 to 10 days before use. Culture medium consisted of DMEM/Ham's F12 (75%/25%) supplemented with 10% FBS, 2 mM glutamine, 5 µg/ml insulin, 25 mM KCl and 1% of antibiotic-antimycotic solution. Co-cultures are obtained by seeding granule cells (1.5×10^6 cells/ml) on cerebellar astrocytes plated in 24-well plates after 12 hours. Co-cultures are maintained in the specific medium for neuron and incubated at 37°C in an humidified atmosphere (5% CO2) for several days.
(§4) The conventional whole-cell configuration of the patch-clamp technique was used to study the GABA-gated currents in astrocytes and granule neurons, UT stably transfected CHO, CHO-UT, and CHO transiently transfected with diverse variants of UT and GABAAR subunits. After 24-h transfection, cell culture coverslips were placed in a small chamber (1.5 ml) on a stage of a right microscope DMLFSA (Leica, Heidelberg, Germany) and superfused continuously with the following bath solution containing (in mM): NaCl, 150; KCl, 2.5; HEPES, 5; CaCl2, 2; MgCl2, 1; glucose, 10 (pH 7.4 adjusted with NaOH). The patch pipettes were fabricated from 1.5 mm (outer diameter) soft glass tubes on a two-step vertical pipette puller (List-Medical, L/M-3P-A, Darmstadt, Germany). […] ATP and GTP were added to the internal solution used to fill electrode just before recording. All recordings were obtained at RT with cells voltage-clamped at −70 mV. The GABAA receptor agonist isoguvacine was prepared in the extracellular solution and was applied to cells by pneumatic pressure ejection. To prevent desenzitization, isoguvacine was more often ejected during 5 s at 2-min intervals. ATP, GTP, or guanosine 5′-O-(2-thiodiphosphate) (GDPβS) were administered through the patch pipette solution. We investigated the effect of competitive inhibition of GDP-GTP exchange by including GDPβS in the pipette solution (in addition to the normal amount of GTP). For GDPβS and the KIC, immediately following patch rupture, GABA current recordings were performed and the experiment was commenced after an equilibration period of 15 min. […]

[2] = biological target: T1, GABAAR in cerebellar astrocytes (UT co-expressed) (Rattus norvegicus, UniProt P49684); test: as above; format: cell-based
T1 construct: Astrocytes, recognized by strong GFAP staining show UT immunoreactivity; endogenous in cells; host or cells: primary rat (P7 Wistar) cerebellar astrocytes co-cultured with cerebellar granule neurons
T1 sequence (P49684 1-386): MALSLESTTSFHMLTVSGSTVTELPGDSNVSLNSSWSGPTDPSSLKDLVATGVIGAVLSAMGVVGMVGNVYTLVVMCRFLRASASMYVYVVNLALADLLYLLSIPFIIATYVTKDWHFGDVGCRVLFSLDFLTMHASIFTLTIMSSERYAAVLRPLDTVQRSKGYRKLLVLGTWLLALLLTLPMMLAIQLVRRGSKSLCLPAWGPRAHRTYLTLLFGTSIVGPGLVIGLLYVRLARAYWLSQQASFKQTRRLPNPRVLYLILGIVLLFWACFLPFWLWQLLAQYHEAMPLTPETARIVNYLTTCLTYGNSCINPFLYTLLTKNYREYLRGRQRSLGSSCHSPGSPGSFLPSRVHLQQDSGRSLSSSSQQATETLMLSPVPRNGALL
Procedure: as §1, §2, §3, §4

Compound | Cells responding to isoguvacine, astrocytes cultured with granule neurons [1] | Direct current activated ([2]; UII 10^−8 M, in some cells) | Recovery of the GABAAR current inhibition during washout ([2]; astrocytes)
O=C(O)C1=CCNCC1 [Iso, isoguvacine] | 48% | – | –
UII: Urotensin II, species not stated at that place (rUII in astrocytes, hUII in CHO and human cells) | – | activated a small inward current | hardly recovered during washout
